Tested on: Escherichia coli TOP10
Test: shrunken log2 fold change of peptide-encoding DNA abundance (4.5 h post-induction vs induction); higher = less antimicrobial activity (less host growth inhibition)
Settings: time post-induction: 4.5 h; library: site-saturation at positions 5, 18, 19, 20
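Further: peptides expressed intracellularly from a pBAD plasmid library in pooled LB shake-flask culture, induced with 0.3% L-arabinose, DNA abundance read by NGS, three biological replicates, DESeq2 with apeglm shrinkage.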

Row | Sequence | shrunken log2 fold change
1 | RRIRDRPPRLPRPRPRPGNGPRP | 0.12
2 | RRIRDRPPRLPRPRPRPGPHPRP | 0.132
3 | RRIRDRPPRLPRPRPRPGPNPRP | 0.0518
4 | RRIRDRPPRLPRPRPRPGQHPRP | -0.121
5 | RRIRDRPPRLPRPRPRPGVWPRP | 0.886
6 | RRIRDRPPRLPRPRPRPGWAPRP | 0.718
7 | RRIRDRPPRLPRPRPRPGYFPRP | -1.25
8 | RRIRDRPPRLPRPRPRPGYMPRP | -0.649
9 | RRIRDRPPRLPRPRPRPHADPRP | -0.0841
10 | RRIRDRPPRLPRPRPRPHEHPRP | 0.00488
11 | RRIRDRPPRLPRPRPRPHELPRP | -0.124
12 | RRIRDRPPRLPRPRPRPHGFPRP | -0.00776
13 | RRIRDRPPRLPRPRPRPHIIPRP | -1.27
14 | RRIRDRPPRLPRPRPRPHKFPRP | -0.122
15 | RRIRDRPPRLPRPRPRPHKPPRP | -0.000627
16 | RRIRDRPPRLPRPRPRPHKSPRP | -0.17
17 | RRIRDRPPRLPRPRPRPHNNPRP | -0.604
18 | RRIRDRPPRLPRPRPRPHPGPRP | 0.163
19 | RRIRDRPPRLPRPRPRPHPVPRP | -0.0422
20 | RRIRDRPPRLPRPRPRPHQDPRP | 0.00101
21 | RRIRDRPPRLPRPRPRPHQEPRP | -0.281
22 | RRIRDRPPRLPRPRPRPHQVPRP | -0.00776
23 | RRIRDRPPRLPRPRPRPHSDPRP | -0.115
24 | RRIRDRPPRLPRPRPRPHSRPRP | -0.328
25 | RRIRDRPPRLPRPRPRPHSSPRP | 0.217
26 | RRIRDRPPRLPRPRPRPHVCPRP | -0.00727
27 | RRIRDRPPRLPRPRPRPHVYPRP | -0.0179
28 | RRIRDRPPRLPRPRPRPHYCPRP | -0.0438

Row | Sequence | shrunken log2 fold change
29 | RRIRDRPPRLPRPRPRPICIPRP | 0.0464
30 | RRIRDRPPRLPRPRPRPICLPRP | 0.0829
31 | RRIRDRPPRLPRPRPRPIDPPRP | -0.107
32 | RRIRDRPPRLPRPRPRPIFMPRP | -0.285
33 | RRIRDRPPRLPRPRPRPIFQPRP | 0.242
34 | RRIRDRPPRLPRPRPRPIGTPRP | 0.208
35 | RRIRDRPPRLPRPRPRPILCPRP | 0.0322
36 | RRIRDRPPRLPRPRPRPILQPRP | -0.0838
37 | RRIRDRPPRLPRPRPRPILRPRP | -0.0119
38 | RRIRDRPPRLPRPRPRPIPMPRP | -0.00947
39 | RRIRDRPPRLPRPRPRPIPTPRP | 0.00396
40 | RRIRDRPPRLPRPRPRPIQVPRP | -0.0916
41 | RRIRDRPPRLPRPRPRPIRRPRP | -0.00194
42 | RRIRDRPPRLPRPRPRPIVLPRP | -0.176
43 | RRIRDRPPRLPRPRPRPIWSPRP | -0.0288
44 | RRIRDRPPRLPRPRPRPKALPRP | -0.00674
45 | RRIRDRPPRLPRPRPRPKCIPRP | -0.318
46 | RRIRDRPPRLPRPRPRPKDKPRP | 0.0636
47 | RRIRDRPPRLPRPRPRPKHFPRP | -0.15
48 | RRIRDRPPRLPRPRPRPKIIPRP | -0.0166
49 | RRIRDRPPRLPRPRPRPKMCPRP | -0.0407
50 | RRIRDRPPRLPRPRPRPKMTPRP | 0.093
51 | RRIRDRPPRLPRPRPRPKSDPRP | 0.295
52 | RRIRDRPPRLPRPRPRPKVCPRP | -0.0149
53 | RRIRDRPPRLPRPRPRPKWNPRP | -0.159
54 | RRIRDRPPRLPRPRPRPKWVPRP | 0.538
55 | RRIRDRPPRLPRPRPRPKYCPRP | -0.0392

Source: the supplement of paper PMC9112550, “Optimization of the antimicrobial peptide Bac7 by deep mutational scanning” (BMC Biology, 2022)
